Twelve molecules from patent US20200317768A1 (published 2020) can be followed below.

In general, Kd refers to a measure of binding affinity in units of concentration.

Where a chain is given by its changes, count along the chain named.

The target in experiment [1] is T1, cynomolgus monkey FcγRIIa1 extracellular domain, C-terminal His-tag (cynomolgus monkey).
T1 construct: also called cyno FcγRIIa1; cynoFcgRIIa1
T1 chain: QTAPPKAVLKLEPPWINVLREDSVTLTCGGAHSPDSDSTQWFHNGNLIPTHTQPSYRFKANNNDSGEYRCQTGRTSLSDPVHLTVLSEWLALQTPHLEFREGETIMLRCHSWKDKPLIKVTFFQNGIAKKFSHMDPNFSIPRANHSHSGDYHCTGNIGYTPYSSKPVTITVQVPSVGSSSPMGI
Nature of the experiment: SPR (Biacore); KD of SG1 / KD of variant.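 Further: relative to parent M103205H795-SG1 carrying the SG1 human heavy chain constant region.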

Experiment [2] has as its target T1, cynomolgus monkey FcγRIIa1 …. The experiment is described as follows: SPR (Biacore), antibody captured, FcgR analyte. (SPR reads the build-up and loss of mass on a sensor chip optically.)
Experiment [3] addresses T2, cynomolgus monkey FcγRIIa2 extracellular domain, C-terminal His-tag (cynomolgus monkey).
T2 construct: also called cyno FcγRIIa2; cynoFcgRIIa2
T2 chain: T1 chain with P95T, T121A, I127K, A128S, K130N, D135N, R142Q
Nature of the experiment: SPR (Biacore), antibody captured, FcgR analyte.

Experiment [4] deals with T3, cynomolgus monkey FcγRIIb extracellular domain, C-terminal His-tag (cynomolgus monkey).
T3 construct: also called cyno FcγRIIb; cynoFcγRIIb
T3 chain: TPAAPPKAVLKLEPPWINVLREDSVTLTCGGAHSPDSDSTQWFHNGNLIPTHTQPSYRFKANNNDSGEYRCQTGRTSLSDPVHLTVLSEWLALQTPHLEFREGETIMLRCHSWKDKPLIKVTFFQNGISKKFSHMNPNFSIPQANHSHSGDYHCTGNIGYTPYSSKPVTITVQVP
Nature of the experiment: SPR (Biacore), antibody captured, FcgR analyte.

The target of experiment [5] is T4, cynomolgus monkey FcγRIIIaS extracellular domain, C-terminal His-tag (cynomolgus monkey, UniProt Q8SPW2 21-206 at identity 1.00)).
T4 construct: also called cyno FcγRIIIaS; cynoFcγRIIIaS
T4 chain: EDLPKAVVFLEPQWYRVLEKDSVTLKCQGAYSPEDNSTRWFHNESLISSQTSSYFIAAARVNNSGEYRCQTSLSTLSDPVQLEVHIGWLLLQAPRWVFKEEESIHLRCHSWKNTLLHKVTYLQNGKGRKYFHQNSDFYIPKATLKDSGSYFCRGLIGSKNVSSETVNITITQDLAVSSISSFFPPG
The experiment is described as follows: SPR (Biacore), antibody captured, FcgR analyte.

For experiment [6], the target named is T5, human FcγRIIaH extracellular domain, C-terminal His-tag (human, UniProt P12318 34-217).
T5 construct: also called human FcγRIIa (type H); FcgRIIaH
T5 sequence: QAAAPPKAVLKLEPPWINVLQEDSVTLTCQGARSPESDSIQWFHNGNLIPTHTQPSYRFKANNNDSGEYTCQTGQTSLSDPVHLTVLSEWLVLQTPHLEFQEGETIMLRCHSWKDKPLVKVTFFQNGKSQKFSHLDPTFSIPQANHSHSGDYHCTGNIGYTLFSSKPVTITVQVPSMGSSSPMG
Nature of the experiment: SPR (Biacore), antibody captured, FcgR analyte.

The target in experiment [7] is T6, human FcγRIIaR extracellular domain, C-terminal His-tag (human, UniProt P12318 34-217).
T6 construct: also called human FcγRIIa (type R); FcgRIIaR
T6 chain: T5 sequence with H134R
The experiment is described as follows: SPR (Biacore), antibody captured, FcgR analyte.

For experiment [8], the target named is T7, human FcγRIIb extracellular domain, C-terminal His-tag (human, UniProt P31994 43-217).
T7 construct: also called human FcgRIIb; FcgRIIb
T7 sequence: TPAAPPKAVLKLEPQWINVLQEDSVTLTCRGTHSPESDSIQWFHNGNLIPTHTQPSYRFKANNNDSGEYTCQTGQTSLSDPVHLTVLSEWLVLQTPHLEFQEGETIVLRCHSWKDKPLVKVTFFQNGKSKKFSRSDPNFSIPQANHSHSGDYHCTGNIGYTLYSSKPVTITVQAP
Nature of the experiment: SPR (Biacore), antibody captured, FcgR analyte.

The target in experiment [9] is T8, human FcγRIIIaV extracellular domain, C-terminal His-tag (human, UniProt P08637 17-208).
T8 construct: also called human FcgRIIIaV; FcgRIIIaV
T8 sequence (P08637 17-208 F176V): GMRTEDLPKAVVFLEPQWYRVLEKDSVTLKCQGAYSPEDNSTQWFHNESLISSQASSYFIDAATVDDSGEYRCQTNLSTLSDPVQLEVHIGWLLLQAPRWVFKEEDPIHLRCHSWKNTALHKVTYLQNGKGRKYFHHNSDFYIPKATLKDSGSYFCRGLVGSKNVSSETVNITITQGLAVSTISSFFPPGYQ
The experiment is described as follows: SPR (Biacore), antibody captured, FcgR analyte.

B1: MS_M103205H795-SG1/M103202L889-SK1 (antibody, human IgG1, kappa)
heavy: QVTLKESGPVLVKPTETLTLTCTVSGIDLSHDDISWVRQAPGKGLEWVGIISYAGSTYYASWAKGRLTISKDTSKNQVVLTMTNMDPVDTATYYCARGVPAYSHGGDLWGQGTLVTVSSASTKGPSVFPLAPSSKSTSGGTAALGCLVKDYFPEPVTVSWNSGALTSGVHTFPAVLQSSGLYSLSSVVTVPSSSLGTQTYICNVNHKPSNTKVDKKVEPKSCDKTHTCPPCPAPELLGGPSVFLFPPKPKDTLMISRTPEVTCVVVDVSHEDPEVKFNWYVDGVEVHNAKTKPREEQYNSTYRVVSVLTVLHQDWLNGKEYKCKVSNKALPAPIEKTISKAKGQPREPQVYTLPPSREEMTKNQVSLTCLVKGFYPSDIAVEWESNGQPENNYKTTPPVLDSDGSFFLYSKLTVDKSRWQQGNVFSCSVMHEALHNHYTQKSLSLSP
light: DIVMTQSPATLSLSPGERATLSCTSSQSVYHANWLSWFQQKPGQPPKLLIYWASTLAYGVPSRFSGSGSGTDFTLTISSLQPEDAATYYCAGGYGGGRYAFGQGTKVEIKRTVAAPSVFIFPPSDEQLKSGTASVVCLLNNFYPREAKVQWKVDNALQSGNSQESVTEQDSKDSTYSLSSTLTLSKADYEKHKVYACEVTHQGLSSPVTKSFNRGEC
notes: Parent of the Fc variants; also called MS1032LO06-SG1
As to B1, in experiment [1], the “KD fold (SG1 = 1)” value is 1 fold. For the same molecule, the equilibrium dissociation constant (Kd) was 3200 nM in [2]; 5100 nM in experiment [3]; 1800 nM in [4]; 360 nM in experiment [5]; 690 nM in [6]; 1100 nM in experiment [7]. For the same molecule, the values for the equilibrium dissociation constant (Kd) in experiment [8] and in experiment [9] were 4600 nM and 810 nM, respectively.

B2: M103205H795-MY050/M103202L889-SK1 (antibody, human IgG1, kappa)
heavy: QVTLKESGPVLVKPTETLTLTCTVSGIDLSHDDISWVRQAPGKGLEWVGIISYAGSTYYASWAKGRLTISKDTSKNQVVLTMTNMDPVDTATYYCARGVPAYSHGGDLWGQGTLVTVSSASTKGPSVFPLAPSSKSTSGGTAALGCLVKDYFPEPVTVSWNSGALTSGVHTFPAVLQSSGLYSLSSVVTVPSSSLGTQTYICNVNHKPSNTKVDKKVEPKSCDKTHTCPPCPAPELLNGPSVFLFPPKPKDTLMISRTPEVTCVVVDVAEEDPEVKFNWYVDGVEVHNAKTKPREEQYNSTYRVVSVLTVLHQDWLNGKEYKCKVSNKALPAPIEKTISKAKGQPREPQVYTLPPSREEMTKNQVSLTCLVKGFYPSDIAVEWESNGQPENNYKTTPPVLDSDGSFFLYSKLTVDKSRWQQGNVFSCSVMHEALHNHYTQKSLSLSP
light: B1 light
notes: Substitutions introduced into M103205H795-SG1; expressed with M103202L889-SK1 as light chain
In the case of B2, the “KD fold (SG1 = 1)” value in experiment [1] was found to be 0.7 fold. The dissociation constant (Kd) was determined as 4300 nM in [2]; 4200 nM in [3]; 1400 nM in experiment [4]; 1700 nM in experiment [5]; 2100 nM in experiment [6]; 1500 nM in experiment [7]. The Kd turned out to be 750 nM in experiment [8] and 3300 nM in experiment [9].

B3: M103205H795-MY047/M103202L889-SK1 (antibody, human IgG1, kappa)
heavy: not shown
light: B1 light
notes: as for B2
In the case of B3, the “KD fold (SG1 = 1)” value in [1] is 0.7 fold. Besides, the dissociation constant (Kd) in [2] was 4800 nM; in experiment [3], 3400 nM; in [4] it was 2600 nM; in experiment [5], 7800 nM; in experiment [6], 2800 nM; in experiment [7], 88 nM. The Kd worked out at 3700 nM in experiment [8] and 7700 nM in experiment [9].

B4: M103205H795-MY048/M103202L889-SK1 (antibody, human IgG1, kappa)
heavy: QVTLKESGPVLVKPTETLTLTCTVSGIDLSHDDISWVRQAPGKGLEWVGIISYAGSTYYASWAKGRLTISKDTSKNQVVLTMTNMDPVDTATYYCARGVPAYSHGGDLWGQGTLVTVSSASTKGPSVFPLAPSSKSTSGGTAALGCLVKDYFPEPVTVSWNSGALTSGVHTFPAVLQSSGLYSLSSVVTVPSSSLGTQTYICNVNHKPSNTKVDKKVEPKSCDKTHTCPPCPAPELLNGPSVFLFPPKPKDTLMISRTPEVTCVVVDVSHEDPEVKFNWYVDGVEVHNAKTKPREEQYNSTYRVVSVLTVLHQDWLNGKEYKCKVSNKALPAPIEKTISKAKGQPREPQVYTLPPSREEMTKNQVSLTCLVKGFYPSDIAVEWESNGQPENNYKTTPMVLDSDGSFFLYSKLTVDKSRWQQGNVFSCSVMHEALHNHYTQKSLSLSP
light: B1 light
notes: as for B2
Take B4: the “KD fold (SG1 = 1)” value in experiment [1] was 2.3 fold. Also, the Kd in experiment [2] worked out at 14000 nM; in [3], 1700 nM; in experiment [4] it was 910 nM; in experiment [5], 54 nM; in experiment [6], 1100 nM; in experiment [7] it was 3100 nM. The Kd was found to be 3300 nM in experiment [8] and 12000 nM in experiment [9].

B5: M103205H795-MY049/M103202L889-SK1 (antibody, human IgG1, kappa)
heavy: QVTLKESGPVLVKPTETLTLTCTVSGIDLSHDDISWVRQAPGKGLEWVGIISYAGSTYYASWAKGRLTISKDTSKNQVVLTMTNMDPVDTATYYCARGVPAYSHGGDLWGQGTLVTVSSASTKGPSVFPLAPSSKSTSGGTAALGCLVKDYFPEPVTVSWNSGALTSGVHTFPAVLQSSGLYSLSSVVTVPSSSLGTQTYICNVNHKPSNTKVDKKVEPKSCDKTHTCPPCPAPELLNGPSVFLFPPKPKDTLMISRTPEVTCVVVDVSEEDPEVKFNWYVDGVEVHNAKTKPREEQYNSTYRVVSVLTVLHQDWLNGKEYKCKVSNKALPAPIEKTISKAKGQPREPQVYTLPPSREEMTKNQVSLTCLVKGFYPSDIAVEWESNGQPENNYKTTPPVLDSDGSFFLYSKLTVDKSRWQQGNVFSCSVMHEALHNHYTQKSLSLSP
light: B1 light
notes: as for B2
In the case of B5, in experiment [1], the “KD fold (SG1 = 1)” value turned out to be 1.2 fold. Moreover, the equilibrium dissociation constant (Kd) was 2700 nM in experiment [2]; 2300 nM in experiment [3]; 850 nM in [4]; 4600 nM in [5]; 1800 nM in experiment [6]; 78000 nM in experiment [7]. In addition, the Kd in experiment [8] is 1500 nM; in experiment [9] it was 7800 nM.

B6: M103205H795-MY052/M103202L889-SK1 (antibody, human IgG1, kappa)
heavy: B2 heavy with A269S, P398M
light: B1 light
notes: as for B2
Take B6: the “KD fold (SG1 = 1)” value in [1] came out at 2.8 fold. Moreover, the Kd in experiment [2] was determined as 1400 nM; in [3] it was 1500 nM; in experiment [4] it was 460 nM; in experiment [5], 1500 nM; in experiment [6], 630 nM; in experiment [7], 14000 nM. Moreover, the figures for the equilibrium dissociation constant (Kd) in experiment [8] and in experiment [9] were 720 nM and 4600 nM, respectively.

B7: M103205H795-MY001/M103202L889-SK1 (antibody, human IgG1, kappa)
heavy: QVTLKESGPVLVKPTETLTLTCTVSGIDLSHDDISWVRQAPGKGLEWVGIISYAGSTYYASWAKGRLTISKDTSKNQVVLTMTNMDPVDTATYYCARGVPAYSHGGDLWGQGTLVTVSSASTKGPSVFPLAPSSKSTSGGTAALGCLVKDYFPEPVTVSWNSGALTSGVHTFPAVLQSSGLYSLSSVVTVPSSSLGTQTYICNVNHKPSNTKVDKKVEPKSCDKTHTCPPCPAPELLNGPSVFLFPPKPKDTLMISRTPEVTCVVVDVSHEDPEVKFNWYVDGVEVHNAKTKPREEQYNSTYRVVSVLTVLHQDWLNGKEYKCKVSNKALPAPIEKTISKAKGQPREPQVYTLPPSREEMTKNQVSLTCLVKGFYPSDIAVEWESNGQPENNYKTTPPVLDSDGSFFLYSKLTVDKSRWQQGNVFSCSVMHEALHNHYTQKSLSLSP
light: B1 light
notes: as for B2
With B7, the “KD fold (SG1 = 1)” value in [1] is 1.1 fold. Besides, the Kd in experiment [2] amounted to 29000 nM; in experiment [3] it was 3600 nM; in experiment [4], 1800 nM; in experiment [5], 1200 nM; in [6], 32 nM; in experiment [7], 8200 nM. The values for the Kd in [8] and in [9] were 7700 nM and 18000 nM, respectively.

B8: M103205H795-MY105/M103202L889-SK1 (antibody, human IgG1, kappa)
heavy: B2 heavy with S241V, A269S, P398M
light: B1 light
notes: as for B2
With B8, the “KD fold (SG1 = 1)” value in experiment [1] worked out at 2.7 fold. The dissociation constant (Kd) in experiment [2] is 12000 nM; in experiment [3], 900 nM; in [4] it was 390 nM; in experiment [5], 13000 nM; in experiment [6], 15000 nM; in [7], 1400 nM. The values for the Kd in experiment [8] and in [9] were 570 nM and 5900 nM, respectively.

B9: M103205H795-MY117/M103202L889-SK1 (antibody, human IgG1, kappa)
heavy: B2 heavy with L236W, P398M
light: B1 light
notes: as for B2
Take B9: the “KD fold (SG1 = 1)” value in [1] turned out to be 1.2 fold. In addition, the Kd in experiment [2] was found to be 2600 nM; in experiment [3], 3200 nM; in experiment [4], 1000 nM; in [5], 1000 nM; in experiment [6], 2200 nM; in experiment [7], 10000 nM. Moreover, the Kd turned out to be 600 nM in experiment [8] and 7300 nM in [9].

B10: M103205H795-MY051/M103202L889-SK1 (antibody, human IgG1, kappa)
heavy: B2 heavy with A269S, P273G
light: B1 light
notes: as for B2
With B10, the “KD fold (SG1 = 1)” value in experiment [1] is 0.7 fold. Further, the dissociation constant (Kd) in experiment [2] came to 4600 nM; in [3] it was 4800 nM; in experiment [4], 1900 nM; in experiment [5] it was 2100 nM; in experiment [6], 22000 nM; in experiment [7], 2800 nM. The Kd in experiment [8] was determined as 2000 nM; in experiment [9] it was 74000 nM.

B11: M103205H795-MY101/M103202L889-SK1 (antibody, human IgG1, kappa)
heavy: B2 heavy with A269S, A332K, P398M
light: B1 light
notes: also called MS1032LO06-MY101
Consider B11, for which the “KD fold (SG1 = 1)” value in experiment [1] was determined as 2.9 fold. Further, the Kd in experiment [2] came to 1100 nM; in [3], 1200 nM; in [4] it was 550 nM; in experiment [5], 32000 nM; in [6], 480 nM; in experiment [7], 870 nM. Besides, the figures for the dissociation constant Kd in [8] and in experiment [9] were 490 nM and 11000 nM, respectively.

B12: M103205H795-MY115/M103202L889-SK1 (antibody, human IgG1, kappa)
heavy: B2 heavy with P398M
light: B1 light
notes: as for B2
Consider B12, for which, in experiment [1], the “KD fold (SG1 = 1)” value is 1.4 fold. The Kd in [2] turned out to be 2300 nM; in experiment [3], 2700 nM; in experiment [4], 780 nM; in experiment [5] it was 850 nM; in [6], 960 nM; in [7] it was 640 nM. The figures for the Kd in [8] and in experiment [9] were 820 nM and 8600 nM, respectively.
